# Results: patent US20170356905 (published 2017)
# B1: thrombin aptamer TA-3bio (ssDNA)
# DNA: GGTTGGTGTGGTTGGTTTTT
# modifications: 3'-biotin; five T added at 3' end (included in SEQ)
# Biological target: alpha-thrombin (Homo sapiens, UniProt P00734;P00734 P00734:328-363,P00734:364-622)
# Experiment: competition; collected complementary strand (SEQ 3) increased with thrombin 0-100 ppm; HEPES/NaCl/KCl/MgCl2/Tween 20 buffer, room temperature
binder,measurement,value
B1,binding result,binds
